According to US20110159009A1 (published 2011):

Legend:
B20.4.1 [1] = assay: SPR (BIAcore); FIG. 10; 37 C; ~60 RU VEGF immobilized; bivalent model
B20.4.1 [2] = assay: SPR (BIAcore); FIG. 11; 37 C; ~1000 RU VEGF immobilized; 1:1 Langmuir model

Row | Kd (B20.4.1 [1]) | Kd (B20.4.1 [2]) | Binder
1 | 0.37 nM | 2.26 nM | mVEGF (ligand) APTTEGEQKSHEVIKFMDVYQRSYCRPIETLVDIFQEYPDEIEYIFKPSCVPLMRCAGCCNDEALECVPTSESNITMQIMRIKPHQSQHIGEMSFLQHSRCECRPKKDRTKPENHCEPCSERRKHLFVQDPQTCKCSCKNTDSRCKARQLELNERTCRCDKPRR
2 | 0.02 nM | 1.16 nM | hVEGF (ligand) APMAEGGGQNHHEVVKFMDVYQRSYCHPIETLVDIFQEYPDEIEYIFKPSCVPLMRCGGCCNDEGLECVPTEESNITMQIMRIKPHQGQHIGEMSFLQHNKCECRPKKDRARQENPCGPCSERRKHLFVQDPQTCKCSCKNTDSRCKARQLELNERTCRCDKPRR
